Measurements reported in PMC9483561.
pKd: −log10 of the molar value.

Biological target: integrin α5β1 headpiece (α5 F1–L609/β1 Q1–E481) (UniProt P05556)
Assay: fluorescence polarisation

Row | Substance | pKd
1 | fibronectin fragment Fn9–10 (G1326–T1509) (from UniProt P02751-1 1357-1540) (domain or fragment) | 7.52
2 | fibronectin fragment Fn7–10 (P1142–T1509) (from UniProt P02751-1 1173-1540) (domain or fragment) | 7.52
